Source: patent EP0901379B1

Biological target: human MIP-1α (human) (UniProt P10147)
Test: 125I-MIP-1α bound to cells with 200X molar excess M-T1, Exp. 1

Chain of UniProt P10147 (P10147 24-92 limits assumed): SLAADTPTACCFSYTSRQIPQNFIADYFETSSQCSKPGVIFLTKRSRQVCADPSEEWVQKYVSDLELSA

myxoma T1 protein (M-T1)
Surface Bound MIP-1α: 978 cpm
